# Measurements as given in US20140242093A1, “METHODS AND COMPOSITIONS FOR MODULATING THE INNATE IMMUNE RESPONSE AND/OR MYOGENESIS IN A MAMMALIAN SUBJECT” (FRED HUTCHINSON CANCER RESEARCH CENTER, priority 2011, published 2014).
# Test system: control human primary myoblasts
# Assay: Expression microarray of primary myoblasts transduced with lentivirus carrying DUX4-fl, DUX4-s or GFP
# Experimental: Primary human myoblasts were collected and cultured as previously described (Snider et al., 2010). Primary myoblasts were maintained at or below 70% confluency for proliferation. For differentiation, cells were allowed to reach 95-100% confluency in growth medium. Once confluency was reached, the cells were changed to differentiation medium (F10 media supplemented with 1% horse serum, 10 μg/mL insulin, and 10 μg/mL transferrin, penicillin/streptomycin) and maintained for 4 days. Human RD cells were grown in DMEM in 10% bovine calf serum (Hyclone) and penicillin/streptomycin. The primary myoblasts were transduced with lentivirus carrying DUX-fl, DUX4- or GFP (MOI=15).
# Expression microarrays were performed on the transduced cells at 24 hours after transduction as follows. […] Samples were analyzed by Illumina Human Whole Genome microarrays. Probe intensities were corrected, normalized, and summarized by the Lumi package of Bioconductor (Du et al., 2008). Differentially expressed genes were identified by the LIMMA package of Bioconductor (Wettenhall and Smyth, 2004). Gene set enrichment analysis (GSEA) was performed using the Bioconductor GOstats package (Falcon and Gentleman, 2007).
molecule,measurement,setting,value
"DUX4-s: short splice form of DUX4 (SEQ ID NO:112), keeps the double-homeobox domains, lacks the C-terminal activation domain (protein, listed as Homo sapiens) MALPTPSDSTLPAEARGRGRRRRLVWTPSQSEALRACFERNPYPGIATRERLAQAIGIPEPRVQIWFQNERSRQLRQHRRESRPWPGRRGPPEGRRKRTAVTGSQTALLLRAFEKDRFPGIAAREELARETGLPESRIQIWFQNRRARHPGQGGRAPAQV",PRAMEF19 expression fc,Refseq NM_001099790.1,−0.03732
same,PRAMEF20 expression fc,Refseq NM_001099852.1,−0.003632
same,PRAMEF14 expression fc,Refseq NM_001099854.1,−0.1694
same,PRAMEF21 expression fc,Refseq NM_001100114.1,−0.06827
same,LOC729384 expression fc,Refseq NM_001105522.1,−0.07068
same,KHDC1L expression fc,Refseq NM_001126063.2,−0.07068
same,CSAG3 expression fc,Refseq NM_001129826.1,0.09074
same,LOC399940 expression fc,Refseq NM_001136118.1,−0.03724
same,LOC440563 expression fc,Refseq NM_001136561.1,0.07051
same,FAM90A7 expression fc,Refseq NM_001136572.1,−0.2137
same,CYCSL1 expression fc,Refseq NR_001561.1,0.3733
same,MGC10997 expression fc,Refseq NR_001565.1,−0.2936
same,FTHL3 expression fc,"Refseq NR_002201.1, cultured human skeletal muscle",0.4498
same,FTHL11 expression fc,"Refseq NR_002204.1, cultured human skeletal muscle",0.6004
same,FTHL12 expression fc,"Refseq NR_002205.1, cultured human skeletal muscle",0.3871
same,RPPH1 expression fc,Refseq NR_002312.1,0.2269
same,RFPL1S expression fc,Refseq NR_002727.1,0.1147
same,SNORD56 expression fc,Refseq NR_002739.1,−0.1657
same,fc of TRIM78P (expression array),Refseq NR_002777.2,1.698
same,HNRPA1L-2 expression fc,Refseq NR_002944.2,−0.898
same,RMRP expression fc,Refseq NR_003051.2,0.07334
same,fc of LOC400759 (expression array),Refseq NR_003133.1,1.032
same,HNRPDL expression fc,Refseq NR_003249.1,0.01689
same,SDHALP1 expression fc,Refseq NR_003264.1,0.1225
same,RN5S9 expression fc,Refseq NR_023371.1,0.7616
same,KIAA0114 expression fc,Refseq NR_024031.1,−0.316
same,NCRNA00092 expression fc,Refseq NR_024129.1,−0.1123
same,MIR503 expression fc,Refseq NR_030228.1,−0.1361
same,MIR2278 expression fc,Refseq NR_031755.1,0.09768
same,USP41 fc,Refseq XM_036729.5,0.5246
same,TRIM64 expression fc,Refseq XM_061890.11,−0.174
same,LOC136157 expression fc,Refseq XM_069743.3,0.05271
same,LOC196120 expression fc,Refseq XM_114987.3,0.05191
same,LOC646066 expression fc,Refseq XM_116384.2,−0.02686
same,LOC284428 expression fc,Refseq XM_208203.5,−0.09941
same,LOC285697 expression fc,Refseq XM_210642.1,−0.06561
same,LOC342934 expression fc,Refseq XM_292724.5,−0.06005
same,LOC340096 expression fc,Refseq XM_293943.2,−0.07893
same,LOC389633 expression fc,Refseq XM_372030.4,−0.0852
same,LOC390031 expression fc,Refseq XM_372343.1,−0.1097
same,LOC390530 fc,Refseq XM_372543.2,0.1083
same,LOC391045 expression fc,Refseq XM_372780.3,0.3531
same,LOC391092 expression fc,Refseq XM_372792.2,0.1107
same,LOC391742 expression fc,Refseq XM_373056.1,0.1596
same,LOC391747 expression fc,Refseq XM_373059.2,−0.1049
same,LOC391761 expression fc,Refseq XM_373073.2,−0.05894
same,LOC391764 expression fc,Refseq XM_373076.3,0.1211
same,LOC391766 expression fc,Refseq XM_373077.2,−0.05537
same,LOC391767 expression fc,Refseq XM_373078.1,0.05542
same,LOC399937 expression fc,Refseq XM_374917.3,0.0007914
same,LOC399939 expression fc,Refseq XM_374919.3,−0.06731
same,LOC401860 expression fc,Refseq XM_377445.3,−0.1342
same,LOC402199 expression fc,Refseq XM_377875.2,0.0817
same,LOC646103 expression fc,Refseq XM_377879.3,−0.1387
same,LOC402207 expression fc,Refseq XM_377884.2,−0.01834
same,LOC440040 expression fc,Refseq XM_495873.4,0.08128
same,FAM90A9 expression fc,Refseq XM_496956.4,0.01693
same,FAM90A12 expression fc,Refseq XM_496961.3,0.04824
same,LOC441584 expression fc,Refseq XM_497258.1,−0.1442
same,LOC441019 expression fc,"Refseq XM_498969.2, cultured human skeletal muscle",0.2625
same,PEG10 expression fc,Refseq XM_499343.2,−0.09718
same,LOC642362 expression fc,Refseq XM_925891.1,−0.0147
same,LOC642538 expression fc,Refseq XM_926027.2,0.1258
same,LOC653111 expression fc,Refseq XM_926073.2,−0.09966
same,LOC642843 expression fc,Refseq XM_926241.2,−0.05848
same,LOC653192 expression fc,Refseq XM_926437.2,−0.03932
same,LOC653194 expression fc,Refseq XM_926449.1,−0.01762
same,LOC643731 expression fc,Refseq XM_927019.1,−0.0009314
same,LOC653506 fc,Refseq XM_927769.1,0.01748
same,LOC645137 expression fc,Refseq XM_928167.2,−0.1524
same,fc of LOC653583 (expression array),Refseq XM_928224.2,0.1005
same,LOC645373 expression fc,Refseq XM_928412.1,−0.06602
same,LOC645558 expression fc,Refseq XM_928577.2,−0.04868
same,LOC645669 expression fc,Refseq XM_928680.1,0.08754
same,LOC653656 expression fc,Refseq XM_928688.3,−0.1419
same,LOC653657 expression fc,Refseq XM_928697.2,0.186
same,LOC646698 expression fc,Refseq XM_929644.2,0.1105
same,LOC646754 expression fc,Refseq XM_929704.2,−0.1486
same,LOC646914 expression fc,Refseq XM_929877.1,−0.02473
same,fc of LOC338758 (expression array),Refseq XM_931359.2,−0.07166
same,LOC644739 fc,Refseq XM_933679.1,−0.07399
same,LOC642127 expression fc,Refseq XM_936272.2,0.04199
same,LOC642219 expression fc,Refseq XM_936370.2,4.39E−05
same,LOC285299 expression fc,Refseq XM_936463.2,−0.03458
same,fc of BEXL1 (expression array),Refseq XM_936467.2,−0.1528
same,LOC653978 expression fc,Refseq XM_937424.1,0.1928
same,LOC646508 expression fc,Refseq XM_937570.1,−0.04201
same,LOC648533 expression fc,Refseq XM_937587.1,0.03736
same,LOC342933 expression fc,Refseq XM_938208.2,−0.1021
same,PRAMEF17 expression fc,Refseq XM_938420.2,0.1008
same,fc of LOC649425 (expression array),Refseq XM_938508.1,2.539
same,LOC649563 expression fc,Refseq XM_938635.2,−0.06114
same,LOC650167 expression fc,Refseq XM_939249.1,0.04811
same,LOC654101 expression fc,Refseq XM_939354.1,0.09479
same,MGC61598 expression fc,Refseq XM_939432.1,0.09581
same,LOC651308 expression fc,Refseq XM_940443.1,0.03906
same,ZC3H5 fc,Refseq XM_940903.2,0.09652
same,LOC651816 expression fc,Refseq XM_941060.1,−0.5388
same,LOC652080 expression fc,Refseq XM_941404.1,0.1734
same,LOC652349 expression fc,Refseq XM_941777.1,0.01696
same,LOC652433 expression fc,Refseq XM_941875.1,−0.03197
same,LOC651390 expression fc,Refseq XM_942401.1,−0.07746
same,LOC727846 expression fc,Refseq XM_001126140.1,0.003662
same,LOC730278 fc,Refseq XM_001126471.1,0.1899
same,PARP10 expression fc,"Refseq XM_001127571.1, cultured human skeletal muscle",0.5424
same,fc of LOC730996 (expression array),Refseq XM_001128017.1,1.049
same,LOC342900 expression fc,Refseq XM_001129035.1,0.1315
same,LOC729368 expression fc,Refseq XM_001130065.2,−0.06002
same,LOC729458 expression fc,Refseq XM_001130308.2,0.008126
same,LOC729694 expression fc,Refseq XM_001131061.1,−0.1655
same,LOC729698 expression fc,Refseq XM_001131072.1,−0.06572
same,LOC729700 expression fc,Refseq XM_001131081.1,−0.184
same,LOC729706 expression fc,Refseq XM_001131091.1,−0.01626
same,LOC729724 expression fc,Refseq XM_001131132.1,0.1112
same,LOC729731 expression fc,Refseq XM_001131140.1,0.09881
same,LOC728450 expression fc,Refseq XM_001131473.2,0.1347
same,RFNG fc,Refseq XM_001132711.1,−0.2183
same,LOC732416 expression fc,Refseq XM_001133386.1,0.05578
same,THOC4 expression fc,Refseq XM_001134346.1,−0.1896
same,PRAMEF15 expression fc,Refseq XM_001713659.1,−0.05867
same,LOC100131392 expression fc,Refseq XM_001713681.1,−0.007104
same,LOC100132564 expression fc,Refseq XM_001713808.1,0.401
same,LOC391769 expression fc,Refseq XM_001713901.1,0.152
same,PRAMEF13 expression fc,Refseq XM_001713933.1,0.1179
same,PRAMEF11 expression fc,Refseq XM_001714028.1,0.1217
same,fc of LOC285296 (expression array),Refseq XM_001714301.1,0.8246
same,LOC100133588 expression fc,Refseq XM_001714755.1,0.03978
same,CTGLF7 expression fc,Refseq XM_001714786.1,−0.2949
same,LOC100129630 expression fc,Refseq XM_001714940.1,−0.1038
same,LOC391763 expression fc,Refseq XM_001715080.1,0.09287
same,LOC642446 expression fc,Refseq XM_001717781.1,0.1879
same,LOC100133446 expression fc,Refseq XM_001717965.1,0.1161
same,LOC100129165 fc,Refseq XM_001718314.1,0.2245
same,LOC643336 expression fc,Refseq XM_001718563.1,1.023
same,LOC100129053 expression fc,Refseq XM_001718702.1,0.09951
same,LOC100130652 expression fc,Refseq XM_001719052.1,0.105
same,RFPL4A expression fc,Refseq XM_001719234.1,−0.09032
same,LOC728809 fc,Refseq XM_001719546.1,0.02213
same,LOC100134199 expression fc,Refseq XM_001719549.1,0.03252
